Blank lines part the entries; values can stand above or below the binder they belong to.
Experiments:
[1] = molecular target: T1, Human VSIG4-L-His (human, UniProt Q9Y279 20-283); experiment: SPR (Biacore T200), Fab P.E. 1:5 over immobilised antigen
T1 construct: long isoform ECD with His tag; also called hVSIG4-L
T1 sequence: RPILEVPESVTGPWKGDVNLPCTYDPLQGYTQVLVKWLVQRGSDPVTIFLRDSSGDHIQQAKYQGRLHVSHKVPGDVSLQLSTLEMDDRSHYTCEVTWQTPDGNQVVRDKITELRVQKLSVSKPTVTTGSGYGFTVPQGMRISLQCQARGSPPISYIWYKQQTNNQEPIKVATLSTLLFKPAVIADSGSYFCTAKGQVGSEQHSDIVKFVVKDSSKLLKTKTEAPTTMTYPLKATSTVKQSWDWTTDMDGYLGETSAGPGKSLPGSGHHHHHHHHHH

[2] = molecular target: T2, Human VSIG4-L-Fc (human); experiment: blocking ELISA, biotin-iC3b on coated hVSIG4-L-Fc
T2 construct: also called hVSIG4-L-Fc; hVSIG4-L

[3] = molecular target: T3, Human VSIG4-S-Fc (human); experiment: ELISA, Fab P.E. 1:5 on coated antigen;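 also: mouse Fab P.E. samples in 1% skimmed milk PBS, bound to antigen-coated wells for 1 h at room temperature, read as absorbance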
T3 construct: short isoform ECD fused to human Fc1; also called hVSIG4-S

[4] = molecular target: T2, Human VSIG4-L-Fc; experiment: ELISA, Fab P.E. 1:5 on coated antigen;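 also: mouse Fab P.E. samples in 1% skimmed milk PBS, bound to antigen-coated wells for 1 h at room temperature, read as absorbance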
[5] = molecular target: T4, Cynomolgus Monkey VSIG4-L-His (cynomolgus monkey); experiment: ELISA, Fab P.E. 1:5 on coated antigen;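 also: mouse Fab P.E. samples in 1% skimmed milk PBS, bound to antigen-coated wells for 1 h at room temperature, read as absorbance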
T4 construct: ECD with His tag; also called cyVSIG4-L; cyno VSIG4-L-His
T4 chain: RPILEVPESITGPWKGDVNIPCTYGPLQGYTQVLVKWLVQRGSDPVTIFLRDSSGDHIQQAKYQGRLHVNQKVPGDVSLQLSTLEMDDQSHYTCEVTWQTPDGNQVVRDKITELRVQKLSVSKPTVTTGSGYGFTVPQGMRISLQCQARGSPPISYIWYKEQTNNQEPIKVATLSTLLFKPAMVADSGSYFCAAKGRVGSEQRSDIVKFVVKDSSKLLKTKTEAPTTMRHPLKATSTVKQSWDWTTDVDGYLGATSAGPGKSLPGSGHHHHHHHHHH

[6] = molecular target: T2, Human VSIG4-L-Fc; experiment: blocking ELISA, biotin-C3b on coated hVSIG4-L-Fc
[7] = molecular target: T2, Human VSIG4-L-Fc; experiment: BLI binning on hVSIG4-L-Fc, competitor 12A12 first;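 also: normalized to binding of second antibody without first competitor antibody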
[8] = molecular target: T2, Human VSIG4-L-Fc; experiment: BLI binning on hVSIG4-L-Fc, competitor 15A06 first;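 also: normalized to binding of second antibody without first competitor antibody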
[9] = molecular target: T5, Human VSIG4-S-His (human, UniProt Q9Y279 20-283); experiment: BLI (Octet), IgG on AHC sensor, antigen 100 nM
T5 construct: short isoform ECD with His tag; also called hVSIG4-S; VISG4-S-His
T5 sequence: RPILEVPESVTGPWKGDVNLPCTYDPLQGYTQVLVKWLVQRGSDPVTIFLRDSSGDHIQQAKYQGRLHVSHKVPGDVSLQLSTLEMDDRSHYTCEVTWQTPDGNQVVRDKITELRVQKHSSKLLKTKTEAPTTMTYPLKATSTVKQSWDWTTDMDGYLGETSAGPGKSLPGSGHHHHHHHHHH

[10] = molecular target: T1, Human VSIG4-L-His; experiment: BLI (Octet), IgG on AHC sensor, antigen 100 nM
[11] = molecular target: T2, Human VSIG4-L-Fc; experiment: ligand competition ELISA (FJB), blocked ligand iC3b
[12] = molecular target: T2, Human VSIG4-L-Fc; experiment: BLI binning on hVSIG4-L-Fc, competitor 15C03 first;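 also: normalized to binding of second antibody without first competitor antibody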
[13] = molecular target: T2, Human VSIG4-L-Fc; experiment: BLI binning on hVSIG4-L-Fc, competitor 14D12 first;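 also: normalized to binding of second antibody without first competitor antibody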
[14] = molecular target: T2, Human VSIG4-L-Fc; experiment: BLI binning on hVSIG4-L-Fc, competitor 12A08 first;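 also: normalized to binding of second antibody without first competitor antibody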
[15] = molecular target: T1, Human VSIG4-L-His; experiment: SPR (FJB)
[16] = molecular target: T2, Human VSIG4-L-Fc; experiment: BLI binning on hVSIG4-L-Fc, competitor 16E03 first;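 also: normalized to binding of second antibody without first competitor antibody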
[17] = molecular target: T2, Human VSIG4-L-Fc; experiment: BLI binning on hVSIG4-L-Fc, competitor 14C05 first;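 also: normalized to binding of second antibody without first competitor antibody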
[18] = molecular target: T6, Human VSIG4-L-CHO (human VSIG4 long isoform on CHO-K1 cells) (human, UniProt Q9Y279 20-399); experiment: flow cytometry, CHO-K1 cells expressing hVSIG4-L
T6 construct: also called hVSIG4-L (flow cytometry)
T6 sequence: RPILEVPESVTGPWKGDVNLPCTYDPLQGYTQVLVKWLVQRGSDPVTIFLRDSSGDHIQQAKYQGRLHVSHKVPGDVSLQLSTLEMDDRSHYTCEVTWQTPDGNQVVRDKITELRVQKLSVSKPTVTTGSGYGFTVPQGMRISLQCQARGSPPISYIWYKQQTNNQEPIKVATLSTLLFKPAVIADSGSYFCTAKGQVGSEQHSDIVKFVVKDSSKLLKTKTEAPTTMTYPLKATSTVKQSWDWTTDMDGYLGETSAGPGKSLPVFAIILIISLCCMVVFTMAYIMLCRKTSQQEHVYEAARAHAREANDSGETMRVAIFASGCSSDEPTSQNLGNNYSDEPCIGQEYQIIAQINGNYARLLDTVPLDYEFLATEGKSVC

[19] = molecular target: T2, Human VSIG4-L-Fc; experiment: BLI binning on hVSIG4-L-Fc, competitor 16E10 first;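 also: normalized to binding of second antibody without first competitor antibody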
[20] = molecular target: T3, Human VSIG4-S-Fc; experiment: ELISA, IgG 50 nM on coated antigen;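 also: Mouse-human chimeric IgG4 antibodies incubated 1 h on plate-coated VSIG4 proteins, bound IgG detected with HRP-labelled anti-human IgG, irrelevant antibody and protein as specificity controls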
[21] = molecular target: T2, Human VSIG4-L-Fc; experiment: ELISA, IgG 50 nM on coated antigen;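 also: Mouse-human chimeric IgG4 antibodies incubated 1 h on plate-coated VSIG4 proteins, bound IgG detected with HRP-labelled anti-human IgG, irrelevant antibody and protein as specificity controls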
[22] = molecular target: T7, Mouse VSIG4-His (mouse); experiment: ELISA, IgG 50 nM on coated antigen;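 also: Mouse-human chimeric IgG4 antibodies incubated 1 h on plate-coated VSIG4 proteins, bound IgG detected with HRP-labelled anti-human IgG, irrelevant antibody and protein as specificity controls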
T7 construct: ECD with His tag; also called mVSIG4
T7 chain: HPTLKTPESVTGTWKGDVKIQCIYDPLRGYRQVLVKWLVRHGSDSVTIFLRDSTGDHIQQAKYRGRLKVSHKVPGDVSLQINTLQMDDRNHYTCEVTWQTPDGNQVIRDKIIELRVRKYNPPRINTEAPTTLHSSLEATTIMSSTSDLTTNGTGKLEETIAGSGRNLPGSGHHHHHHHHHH

[23] = molecular target: T2, Human VSIG4-L-Fc; experiment: BLI binning on hVSIG4-L-Fc, competitor 13H11 first;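 also: normalized to binding of second antibody without first competitor antibody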
[24] = molecular target: T6, Human VSIG4-L-CHO (human VSIG4 long …); experiment: flow cytometry (FJB), 200 nM mAb, huVSIG4-L CHO-K1 cells
[25] = molecular target: T2, Human VSIG4-L-Fc; experiment: ligand blocking of iC3b, IgG
[26] = molecular target: T4, Cynomolgus Monkey VSIG4-L-His; experiment: ELISA, IgG 50 nM on coated antigen; ELISA, bivalent IgG on plate-coated cyVSIG4-L (avid format)
[27] = molecular target: T2, Human VSIG4-L-Fc; experiment: ligand competition ELISA (FJB), blocked ligand C3b
[28] = molecular target: T2, Human VSIG4-L-Fc; experiment: BLI binning on hVSIG4-L-Fc, competitor 15C04 first;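 also: normalized to binding of second antibody without first competitor antibody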
[29] = molecular target: T2, Human VSIG4-L-Fc; experiment: ligand blocking of C3b, IgG
[30] = molecular target: T6, Human VSIG4-L-CHO (human VSIG4 long …); experiment: flow cytometry (FJB), 200 nM mAb, huVSIG4-L CHO-K1 over parental CHO-K1
[31] = molecular target: T2, Human VSIG4-L-Fc; experiment: ligand competition ELISA (FJB), blocked ligand C3b, 200 nM mAb
[32] = molecular target: T2, Human VSIG4-L-Fc; experiment: ligand competition ELISA (FJB), blocked ligand iC3b, 200 nM mAb

T3 sequence (chain, as listed by the source limits assumed): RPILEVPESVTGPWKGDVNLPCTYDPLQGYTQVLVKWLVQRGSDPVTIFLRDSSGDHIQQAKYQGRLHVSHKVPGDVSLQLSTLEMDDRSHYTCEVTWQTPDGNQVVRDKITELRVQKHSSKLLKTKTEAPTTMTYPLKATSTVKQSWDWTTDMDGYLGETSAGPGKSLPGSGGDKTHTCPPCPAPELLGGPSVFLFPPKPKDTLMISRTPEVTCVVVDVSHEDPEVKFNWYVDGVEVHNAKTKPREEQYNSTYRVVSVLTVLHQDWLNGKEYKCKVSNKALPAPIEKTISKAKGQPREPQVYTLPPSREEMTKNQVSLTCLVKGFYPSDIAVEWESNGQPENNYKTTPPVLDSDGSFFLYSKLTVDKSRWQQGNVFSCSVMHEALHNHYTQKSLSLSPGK

B1: 14C05 mouse Fab (periplasmic extract) (Fab, V domains shown)
VH: EVMLVESGPELKKPGETVKISCKASGYTFTNYGMNWVKQAPGKGLKWMGSINTYTGEATYADDFKGRFAFSLETSANTAYLQIDNLKNEDTATYFCARGDYYGRGTWFAYWGQGTLVTVSA
VL: ETTVTQSHKFMSTSVGDRVSITCKASQDVSTAVAWYQQKPGQSPKLLIYSASYRYPGVPDRFTGSGSGTDFTFTISSVQAEDLAVYYCQQDYSSPWTFGGGTKLEIK
notes: mouse Fab with C-terminal His6-c-myc tag
koff [1]: 0.00037 s⁻¹ | Percent Blocking iC3b [2]: 88.7% | ELISA OD450 [3]: 4.32 OD450 | ELISA OD450 [4]: 4.33 OD450 | ELISA OD450 [5]: 4.37 OD450 | Percent Blocking C3b [6]: 88.8%

B2: 15C03 mouse/human chimeric IgG4 (S228P) kappa (antibody, V domains shown)
VH: EVKLLESGPGLVKPSQSLSLTCTVTGYSITSDYAWNWIRQFPGNKLEWMGYISYSGSTRYNPSLKSRISITRDTSNNQFFLQLNSVTTEDTATYYCARSGYAAMDYWGQGTSVTVSS
VL: ENVLTQSPAIMSASPGEKVTMTCRASSSVSSSYLHWYQQKSGASPKLWIYSTSNLASGVPARFSGSGSGTSYSLTISSVEAEDAATYYCQQYSGYPLTFGSGTKLEIKR
normalized maximum binding nm shift [7]: 0.76 normalized | normalized maximum binding nm shift [8]: 0.82 normalized | Kd [9]: 18.6 nM | Kd [10]: 32.1 nM | IC50 [11]: 12.8 nM | normalized maximum binding nm shift [12]: 0.15 normalized | normalized maximum binding nm shift [13]: 0.41 normalized | normalized maximum binding nm shift [14]: 0.8 normalized | Kd [15]: 17.9 nM | normalized maximum binding nm shift [16]: 0.13 normalized | normalized maximum binding nm shift [17]: 0.44 normalized | EC50 [18]: 2.3 nM | normalized maximum binding nm shift [19]: 0.93 normalized | ELISA OD450 [20]: 3.64 OD450 | ELISA OD450 [21]: 4.4 OD450 | ELISA OD450 [22]: 0.057 OD450 | normalized maximum binding nm shift [23]: 0.74 normalized | Binding (200 nM) MFI [24]: 48900 MFI | Percent Blocking iC3b [25]: 90% | ELISA OD450 [26]: 4.5 OD450 | IC50 [27]: 2.4 nM | normalized maximum binding nm shift [28]: 0.89 normalized | Percent Blocking C3b [29]: 90% | Binding (200 nM) Fold-Over-Parental [30]: 83 fold

B4: 14D12 mouse Fab (periplasmic extract) (Fab, V domains shown)
VH: QIQLVQSGPELKKPGETVKISCKASGYTFTNYGMNWVKQTPGKGLKWMGLINTYTGEPTYADDFKGRFAFSLETSASTAYLQINNLKNEDMATYFCARERIYGYLHYFDYWGQGTTLTVSS
VL: DVVMTQTPASLAVSLGQRATISCKASQSVDYDGDSYMNWYQQKPGQPPKLLIYAASNLESGIPARFSGSGSGTDFTLNIHPVEEEDAATYYCQQSNEDPRTFGGGTKLEIK
notes: as for B1
koff [1]: 0.0063 s⁻¹ | Percent Blocking iC3b [2]: 56% | ELISA OD450 [3]: 4.18 OD450 | ELISA OD450 [4]: 4.32 OD450 | ELISA OD450 [5]: 4.32 OD450 | Percent Blocking C3b [6]: 70.3%

Further lines, results first:

koff [1]: 0.025 s⁻¹ | Percent Blocking iC3b [2]: 7.6% | ELISA OD450 [3]: 1.32 OD450 | ELISA OD450 [4]: 1.86 OD450 | ELISA OD450 [5]: 1.88 OD450 | Percent Blocking C3b [6]: 7.1%
B3: 16E10 mouse Fab (periplasmic extract) (Fab, V domains shown)
VH: QVQLQQSGAELVRPGTSVKISCKASGYTFTNYWLGWVKQRPGHGLEWIGDIYPGGGYTNYNEKFKGKATLTADTSSSTAYMQLSSLTSEDSAVYFCAKFYYYGSSYYFDSWGQGTTLTVSS
VL: DIVLTQSPSSLSVSAGEKVTLSCKSSQSLLNSGNQENYLAWYQQKPGQPPKLLIYGASTRESGVPDRFTGSGSGTDFTLTISSVQAEDLAVYYCQNDHSYPLTFGAGTKLELK
notes: as for B1

normalized maximum binding nm shift [7]: 0.9 normalized | normalized maximum binding nm shift [8]: 0.83 normalized | Kd [9]: 49.3 nM | Kd [10]: 49.3 nM | normalized maximum binding nm shift [12]: 0.1 normalized | normalized maximum binding nm shift [13]: 0.79 normalized | normalized maximum binding nm shift [14]: 0.13 normalized | Kd [15]: 29.7 nM | normalized maximum binding nm shift [16]: 0.04 normalized | normalized maximum binding nm shift [17]: 0.78 normalized | EC50 [18]: 1 nM | normalized maximum binding nm shift [19]: 0.37 normalized | ELISA OD450 [20]: 4.13 OD450 | ELISA OD450 [21]: 4.5 OD450 | ELISA OD450 [22]: 0.054 OD450 | normalized maximum binding nm shift [23]: 0.76 normalized | Binding (200 nM) MFI [24]: 30400 MFI | ELISA OD450 [26]: 4.36 OD450 | % Block C3b (200 nM mAb) [31]: -192% | normalized maximum binding nm shift [28]: 0.86 normalized | % Block iC3b (200 nM mAb) [32]: -3% | Binding (200 nM) Fold-Over-Parental [30]: 23 fold
B5: 16E03 mouse/human chimeric IgG4 (S228P) kappa (antibody, V domains shown)
VH: QVQLQQSGAELARPGASVKMSCKASGYTFTSYTMHWIKQRPGQGLEWIGYINPSSGHTYYNQKFKDKATLTPDKSSSTAYMQLTSLTSEDSAVYYCARRIPTAYAMDYWGQGTSVTVSS
VL: EIQMTQSHKFMSTSVGDRVSITCKASQDVGTAVAWYQQKPGQSPKLLIYWASTRHTGVPDRFTGSGSGTDFTLTISNVQSEDLADYFCQQYSSYPLTFGAGTKLELKR

Reference: patent US20230348603A1 (VERSEAU THERAPEUTICS, published 2023)
